From the PETadex activity labels
Changes are numbered by the printed parent chain.

Assays:
PET [1] = experiment: Proxy for plastic degradation [Released Products (MHET,BHET, TPA)]; details: pH 8
[2] = Proxy for plastic degradation [Weight/mass loss]; details: pH 8
PET [3] = experiment: Proxy for plastic degradation [Weight/mass loss]
PCL = experiment: Proxy for plastic degradation [Residual activity]; details: pH 8
PET [4] = experiment: Proxy for plastic degradation [Released monomer concentration (HPLC/LC-MS) (MHET+TPA)]; details: pH 8
PET [5] = experiment: Proxy for plastic degradation [adsorption equilibrium constant (K_A), utilising heterogeneous kinetic model]; details: pH 8
PET [6] = experiment: Proxy for plastic degradation [MHET inhibitor binding constant (beta), utilising the kinetic inhibition model]; details: pH 8
PET [7] = experiment: Proxy for plastic degradation [hydrolysis rate constant (k_h), utilising heterogeneous kinetic model] (µmol/(cm²·h)); details: pH 8
pNPB = experiment: Proxy for plastic degradation [Residual activity]; details: pH 8
PBSA = experiment: Proxy for plastic degradation [kcat/Km (catalytic efficiency)] (mM⁻¹s⁻¹); details: pH 8.2
PET [8] = experiment: Proxy for plastic degradation [Absorbance @ 240nm]

B1: unnamed (protein)
chain: MGSSHHHHHHSSGLVPRGSHMRGPNPTAASLEASAGPFTVRSFTVSRPSGYGAGTVYYPTNAGGTVGAIAIVPGYTARQSSIKWWGPRLASHGFVVITIDTNSTLDQPSSRSSQQMAALRQVASLNGTSSSPIYGKVDTARMGVMGWSMGGGGSLISAANNPSLKAAAPQAPWDSSTNFSSVTVPTLIFACENDSIAPVNSSALPIYDSMSRNAKQFLEINGGSHSCANSGNSNQALIGKKGVAWMKRFMDNDTRYSTFACENPNSTRVSDFRTANCSLEDPAANKARKEAELAAATAEQ
Proxy for plastic degradation (PET [1]; 4 °C): 100 µM | Proxy for plastic degradation (PET [1]; 16 °C): 410 µM | Proxy for plastic degradation (PET [1]; 30 °C): 1100 µM | Proxy for plastic degradation (PET [1]; 37 °C): 300 µM | Proxy for plastic degradation (PET [1]; 55 °C): 180 µM | Proxy for plastic degradation (PET [1]; 70 °C): 100 µM

B2: unnamed (protein)
chain: MELALALSLIASVAAAPTATLANGDTITGLNAIINEAFLGIPFAEPPVGNLRFKDPVPYSGSLDGQKFTSYGPSCMQQNPEGTYEENLPKAALDLVMQSKVFEAVSPSSEDCLTINVVRPPGTKAGANLPVMLWIFGGGFEVGGTSTFPPAQMITKSIAMGKPIIHVSVNYRVSSWGFLAGDEIKAEGSANAGLKDQRLGMQWVADNIAAFGGDPTKVTIFGESAGSMSVMCHILWNDGDNTYKGKPLFRAGIMQSGAMVPSDAVDGIYGNEIFDLLASNAGCGSASDKLACLRGVSSDTLEDATNNTPGFLAYSSLRLSYLPRPDGVNITDDMYALVREGKYANIPVIIGDQNDEGTFFGTSSLNVTTDAQAREYFKQSFVHASDAEIDTLMTAYPGDITQGSPFDTGILNALTPQFKRISAVLGDLGFTLARRYFLNHYTGGTKYSFLSKQLSGLPVLGTFHSNDIVFQDYLLGSGSLIYNNAFIAFATDLDPNTAGLLVKWPEYTSSSQSGNNLMMINALGLYTGKDNFRTAGYDALFSNPPSFFV
Proxy for plastic degradation [2]: 0.2 mg | Proxy for plastic degradation (PET [3]; pH 8): 0 mg

B3: unnamed (protein)
chain: ANPYERGPNPTDALLEARSGPFSVSEENVSRLSASGFGGGTIYYPRENNTYGAVAISPGYTGTEASIAWLGERIASHGFVVITIDTITTLDQPDSRAEQLNAALNHMINRASSTVRSRIDSSRLAVMGHSMGGGGSLRLASQRPDLKAAIPLTPWHLNKNSSVTVPTLIIGADLDTIAPVATHAKPFYNSLPSSISKAYLELDGATHFAPNIPNKIIGKYSVAWLKRFVDNDTRYTQFLCPGPRDGLFGEVEEYRSTCPFY
Proxy for plastic degradation (PET [3]; pH 8): 15.9% | Proxy for plastic degradation (PCL): 36.5% | Proxy for plastic degradation (PET [4]): 27 µM | Proxy for plastic degradation (PET [5]): 0.338 mL/µg | Proxy for plastic degradation (PET [6]): 0.738 L/mmol | Proxy for plastic degradation (PET [7]): 0.094

B4: unnamed (protein)
chain: SNPYQRGPNPTRSALTADGPFSVATYTVSRLSVSGFGGGVIYYPTGTSLTFGGIAMSPGYTADASSLAWLGRRLASHGFVVLVINTNSRFDYPDSRASQLSAALNYLRTSSPSAVRARLDANRLAVAGHSMGGGGTLRIAEQNPSLKAAVPLTPWHTDKTFNTSVPVLIVGAEADTVAPVSQHAIPFYQNLPSTTPKVYVELDNASHFAPNSNNAAISVYTISWMKLWVDNDTRYRQFLCNVNDPALSDFRTNNRHCQHHHHHH
Proxy for plastic degradation (pNPB; 40 °C): 100% | Proxy for plastic degradation (pNPB; 50 °C): 100% | Proxy for plastic degradation (pNPB; 90 °C): 0% | Proxy for plastic degradation (pNPB; 95 °C): 0%

B5: unnamed (protein)
chain: MLAVWDDTLAHPVRGRDRELATLTGLLDNTSGRRGTGMVVVGAPGTGKTTLLNALVEHAEGFQVLWAEGSAAESDVRFAGVEQLLRPLESLVSLLPDDRGRALRPVWGLPADDEGQVGSLAVPAAVSALLGLAARRQPVLCCVDSAHLLDSASLSALAFAARRAHHAGVVFVFAVDCTADTEVDTETSVWGELPRLRLGRLDDEAAHALLRDRLGASLPHDLADSLLDVGHGAPLALVELAESLTPEHLCGRAAPPSSPPPEGRLCRTLGHRLSALSEGAREVVALAGISEGLDEQLTCRVLPHHRSTLAEAVRSGLVVLDGDTVRTAADTVPSALLAALTPQDIVQAHHRMAEAAEAVGDRDRAVWHRAAIAMAPDPALVADLDDIAERARAAAAHATAAAASERAAALTSDTKERARRLVAAATDHWASGRPQRARTALRLAAPLSDSVLGARVSRLAGEIELRRGDPSVAATKLISTARQLASTHRTLAASALMLAGEASFVAGDNARYCLTAKDAALLCGPEEWPATRVVREHFTAMSATFRGEHSAAAAPLRSLVELGETTPDPTAKTLASQAAFTLGDAERSRDLALQAVVCARARGDESGVPWALVYAALSALLSGQLSAASTTALEGLQVARSLGQSNSAVDHVTVLAMLAALQGDEETALQRLQAANTELAERGLGRPSALATWAAACVDLAHDRPAEAFDRFRRMTVGRSRHCVPLRVMAVPHFVEAAVRCGEKEVARRSLVTFEHWANTTGGTARVALAHRCHALLAEQDGEAQERFTEAVRLHREADAPYDLAVTQLLYASHLRRSRRPKQARELLREAVQLFDDLGATHWVERASQELRACGHPGRGKPHLSRGLSPQQERIAQLVADGATNKEIATQLFISHRTVDHHLRNIFAKLDVRSRVQLAALFR
Proxy for plastic degradation (PBSA): 430

B6: unnamed (protein)
chain: B5 chain with A233H
Proxy for plastic degradation (PBSA): 375

B7: unnamed (protein)
chain: B5 chain with A233D
Proxy for plastic degradation (PBSA): 330

B8: unnamed (protein)
chain: MARTMRSRVVAGAVACAMSIAPFAGTTAVMTLATTHAAMAATAPAAGYAATRYPIILVHGLSGTDKYAGVLEYWYGIQEDLQQNGATVYVANLSGFQSDDGPNGRGEQLLAYVKTVLAATGATKVNLVGHSQGGLSSRYVAAVAPDLVASVTTIGTPHRGSEFADFVQDVLAYDPTGLSSSVIAAFVNVFGILTSSSHNTNQDALAALQTLTTARAATYNQNYPSAGLGAPGSCQTGAPTETVGGNTHLLYSWAGTAIQPTLSVFGVTGATDTSTLPLVDPANVLDLSTLALFGTGTVMINRGSGQNDGLVSKCSALYGKVLSTSYKWNHLDEINQLLGVRGAYAEDPVAVIRTHANRLKLAGV
Proxy for plastic degradation [2]: 2.8 mg | Proxy for plastic degradation (PET [3]; pH 8): 0 mg

B9: unnamed (protein)
chain: MFQRVWALTAALMLMLSLGATSSHAAQNPHERGPDPSNSYIEQARGSYSVSQRSISRLGSDGFRDGTMYYPTSTADGRFGVVAISPGYTASESTIAWLGPRLASFGFVVVTINTDSRYDQPRQRATQLHAALDHAIGDSVVGPRIDTSRQAVMGHSMGGGGALQAAEERDEIRAAVPLTPWNLKKGWSGVDAATLVIGAENDAIAPVRSHSIPFYESLTNAERRAYLELRREGHFAPNSSNTLIAKYSVSWLKRYVDNDLRYDQFIDPGPRTGITTGVSDYRLG
Proxy for plastic degradation (PET [8]; pH 8, 0 h): 0 µM | Proxy for plastic degradation (PET [8]; pH 8, 10 °C): 0.012 AU | Proxy for plastic degradation (PET [8]; pH 8, 28 °C): 0.016 AU | Proxy for plastic degradation (PET [8]; pH 8, 37 °C): 0.045 AU | Proxy for plastic degradation (PET [8]; pH 8, 45 °C): 0.073 AU | Proxy for plastic degradation (PET [8]; pH 8.5): 0.199 AU | Proxy for plastic degradation (PET [8]; pH 9.5): 0.085 AU | Proxy for plastic degradation (PET [8]; pH 10.5): 0.015 AU

B10: unnamed (protein)
chain: ANPYERGPNPTDALLEARSGPFSVSEENVSRLSASGFGGGTIYYPRENNTYGAVAISPGYTATEASIAWLGERIASHGFVVITIDTITTLDQPDSRAEQLNAALNHMINRASSTVRSRIDSSRLAVMGHSMGGGGSLRLASQRPDLKAAIPLTPWHLNKNWSSVTVPTLIIGADLDTIAPVATHAKPFYNSLPSSISKAYLELDGATHAAPNIPNKIIGKYSVAWLKRFVDNDTRYTQFLCPGPRDGLFGEVEEYRSTCPFYPNSSSVDKLAAALE
Proxy for plastic degradation (PET [3]; pH 9, 6 h): 20%
